Patent publication US20140348865A1, “[…] ON AN HIV-1 V1V2 SITE-OF-VULNERABILITY” (The United States of America, as represented by the …, priority 2011, published 2014)

Assays:
[1] = target: Q842.d12 (HIV-1)
[2] = target: R3265.c6 (HIV-1)
[3] = target: MI369.A5 (HIV-1)
[4] = target: MB201.A1 (HIV-1)
[5] = target: C4118.09 (HIV-1)
[6] = target: Env of HIV-1 strain 0439 (pseudovirus) (HIV-1)
[7] = target: MS208.A1 (HIV-1)
[8] = target: BB201.B42 (HIV-1)
[9] = target: Q461.e2 (HIV-1)
[10] = target: C2101.c1 (HIV-1)
[11] = target: C1080.c3 (HIV-1)
[12] = target: BS208.B1 (HIV-1)
[13] = target: CNE59 (HIV-1)
[14] = target: CNE5 (HIV-1)
[15] = target: 6540.v4.c1 (HIV-1)
[16] = target: Q259.17 (HIV-1)
[17] = target: 6095_V1_C10 (HIV-1)
[18] = target: R1166.c1 (HIV-1)
[19] = target: TH966.8 (HIV-1)
[20] = target: Q168.a2 (HIV-1)
[21] = target: 6545_V4_C1 (HIV-1)
[22] = target: 3468_V1_C12 (HIV-1)
[23] = target: Q769.d22 (HIV-1)
[24] = target: Q769.h5 (HIV-1)
[25] = target: 3589_V1_C4 (HIV-1)
[26] = target: Env of HIV-1 strain 398 (pseudovirus) (HIV-1)
[27] = target: C3347.c11 (HIV-1)
[28] = target: 3415.v1.c1 (HIV-1)
[29] = target: CNE55 (HIV-1)
[30] = target: 0815_V3_C3 (HIV-1)
[31] = target: Env of HIV-1 strain QH209 (pseudovirus) (HIV-1)
[32] = target: Q23.17 (HIV-1)
[33] = target: KER2018.11 (HIV-1)
[34] = target: Env of HIV-1 strain CNE56 (pseudovirus) (HIV-1)
[35] = target: KNH1209.18 (HIV-1)
[36] = target: RW020.2 (HIV-1)
[37] = target: 620345.c1 (HIV-1)
[38] = target: KER2008.12 (HIV-1)
[39] = target: BI369.9A (HIV-1)
[40] = target: MB539.2B7 (HIV-1)
[41] = target: 0330.v4.c3 (HIV-1)
[42] = target: CNE3 (HIV-1)
[43] = target: BB539.2B13 (HIV-1)
[44] = target: UG037.8 (HIV-1)
[45] = target: TH976.17 (HIV-1)
[46] = target: M02138 (HIV-1)
[47] = target: 0260.v5.c36 (HIV-1)
[48] = target: 3718.v3.c11 (HIV-1)
[49] = target: 3301_V1_C24 (HIV-1)
[50] = target: R2184.c4 (HIV-1)
[51] = target: SC422.8
[52] = target: SS1196.01
[53] = target: 89.6.DG
[54] = target: BR07.DG
[55] = target: CAAN.A2
[56] = target: T280-5
[57] = target: Env of HIV-1 strain QH0515 (pseudovirus) (HIV-1)
[58] = target: AC10.29
[59] = target: ADA.DG
[60] = target: Env of HIV-1 strain T251-18 (pseudovirus) (HIV-1)
[61] = target: T250-4
[62] = target: REJO.67
[63] = target: TRO.11 (pseudovirus)
[64] = target: JR-CSF
[65] = target: WITO.33

monoclonal antibody PG16
neutralization IC80 [1]: 0.006 µg/mL | neutralization IC80 [2]: 0.691 µg/mL | neutralization IC80 [3]: 0.082 µg/mL | neutralization IC80 [4]: 0.019 µg/mL | neutralization IC80 [5]: 0.24 µg/mL | neutralization IC80 [6]: > 50 µg/mL | neutralization IC80 [7]: 31.8 µg/mL | neutralization IC80 [8]: 0.008 µg/mL | neutralization IC80 [9]: > 50 µg/mL | neutralization IC80 [10]: 0.069 µg/mL | neutralization IC80 [11]: 0.004 µg/mL | neutralization IC80 [12]: 0.012 µg/mL | neutralization IC80 [13]: > 50 µg/mL | neutralization IC80 [14]: < 0.023 µg/mL | neutralization IC80 [15]: 0.154 µg/mL | neutralization IC80 [16]: 0.717 µg/mL | neutralization IC80 [17]: 0.443 µg/mL | neutralization IC80 [18]: 12.5 µg/mL | neutralization IC80 [19]: 0.03 µg/mL | neutralization IC80 [20]: 0.106 µg/mL | neutralization IC80 [21]: 0.562 µg/mL | neutralization IC80 [22]: > 50 µg/mL | neutralization IC80 [23]: 11 µg/mL | neutralization IC80 [24]: 0.02 µg/mL | neutralization IC80 [25]: 37.8 µg/mL | neutralization IC80 [26]: > 50 µg/mL | neutralization IC80 [27]: 0.031 µg/mL | neutralization IC80 [28]: 0.342 µg/mL | neutralization IC80 [29]: > 50 µg/mL | neutralization IC80 [30]: > 50 µg/mL | neutralization IC80 [31]: > 50 µg/mL | neutralization IC80 [32]: 0.004 µg/mL | neutralization IC80 [33]: 0.002 µg/mL | neutralization IC80 [34]: > 50 µg/mL | neutralization IC80 [35]: > 50 µg/mL | neutralization IC80 [36]: 3.51 µg/mL | neutralization IC80 [37]: > 50 µg/mL | neutralization IC80 [38]: 0.046 µg/mL | neutralization IC80 [39]: 0.037 µg/mL | neutralization IC80 [40]: 0.205 µg/mL | neutralization IC80 [41]: 0.027 µg/mL | neutralization IC80 [42]: > 50 µg/mL | neutralization IC80 [43]: 0.062 µg/mL | neutralization IC80 [44]: 0.004 µg/mL | neutralization IC80 [45]: > 50 µg/mL | neutralization IC80 [46]: 0.81 µg/mL | neutralization IC80 [47]: > 50 µg/mL | neutralization IC80 [48]: 0.102 µg/mL | neutralization IC80 [49]: 0.397 µg/mL | neutralization IC80 [50]: > 50 µg/mL | neutralization IC50 [51]: 1.2 µg/mL | neutralization IC50 [52]: 0.069 µg/mL | neutralization IC50 [53]: > 50 µg/mL | neutralization IC50 [54]: > 50 µg/mL | neutralization IC50 [55]: 7.43 µg/mL | neutralization IC50 [56]: 0.233 µg/mL | neutralization IC50 [57]: > 50 µg/mL | neutralization IC50 [58]: < 0.023 µg/mL | neutralization IC50 [59]: 0.023 µg/mL | neutralization IC50 [60]: 10.5 µg/mL | neutralization IC50 [61]: < 0.0006 µg/mL | neutralization IC50 [62]: 0.005 µg/mL | neutralization IC50 [63]: 4.86 µg/mL | neutralization IC50 [64]: 0.002 µg/mL | neutralization IC50 [65]: < 0.023 µg/mL

monoclonal antibody PG9
neutralization IC80 [1]: 0.021 µg/mL | neutralization IC80 [2]: 9.8 µg/mL | neutralization IC80 [3]: 0.364 µg/mL | neutralization IC80 [4]: 0.193 µg/mL | neutralization IC80 [5]: 0.205 µg/mL | neutralization IC80 [6]: > 50 µg/mL | neutralization IC80 [7]: 0.589 µg/mL | neutralization IC80 [8]: 0.046 µg/mL | neutralization IC80 [9]: 29.9 µg/mL | neutralization IC80 [10]: 0.289 µg/mL | neutralization IC80 [11]: 0.011 µg/mL | neutralization IC80 [12]: 0.098 µg/mL | neutralization IC80 [13]: 0.465 µg/mL | neutralization IC80 [14]: < 0.023 µg/mL | neutralization IC80 [15]: 0.213 µg/mL | neutralization IC80 [16]: 0.229 µg/mL | neutralization IC80 [17]: 2.25 µg/mL | neutralization IC80 [18]: 9.24 µg/mL | neutralization IC80 [19]: 0.183 µg/mL | neutralization IC80 [20]: 0.342 µg/mL | neutralization IC80 [21]: 0.315 µg/mL | neutralization IC80 [22]: > 50 µg/mL | neutralization IC80 [23]: 0.033 µg/mL | neutralization IC80 [24]: 0.007 µg/mL | neutralization IC80 [25]: 0.102 µg/mL | neutralization IC80 [26]: > 50 µg/mL | neutralization IC80 [27]: 0.168 µg/mL | neutralization IC80 [28]: 0.77 µg/mL | neutralization IC80 [29]: 1.32 µg/mL | neutralization IC80 [30]: > 50 µg/mL | neutralization IC80 [31]: > 50 µg/mL | neutralization IC80 [32]: 0.02 µg/mL | neutralization IC80 [33]: 0.004 µg/mL | neutralization IC80 [34]: > 50 µg/mL | neutralization IC80 [35]: > 50 µg/mL | neutralization IC80 [36]: 0.622 µg/mL | neutralization IC80 [37]: > 50 µg/mL | neutralization IC80 [38]: 0.085 µg/mL | neutralization IC80 [39]: 0.151 µg/mL | neutralization IC80 [40]: 0.383 µg/mL | neutralization IC80 [41]: 0.083 µg/mL | neutralization IC80 [42]: 1.12 µg/mL | neutralization IC80 [43]: 0.422 µg/mL | neutralization IC80 [44]: 0.085 µg/mL | neutralization IC80 [45]: > 50 µg/mL | neutralization IC80 [46]: 1.36 µg/mL | neutralization IC80 [47]: 22.8 µg/mL | neutralization IC80 [48]: 0.202 µg/mL | neutralization IC80 [49]: 1.51 µg/mL | neutralization IC80 [50]: 1.75 µg/mL | neutralization IC50 [51]: 0.535 µg/mL | neutralization IC50 [52]: 0.293 µg/mL | neutralization IC50 [53]: > 50 µg/mL | neutralization IC50 [54]: > 50 µg/mL | neutralization IC50 [55]: 13 µg/mL | neutralization IC50 [56]: 0.379 µg/mL | neutralization IC50 [57]: > 50 µg/mL | neutralization IC50 [58]: 0.078 µg/mL | neutralization IC50 [59]: 0.342 µg/mL | neutralization IC50 [60]: > 50 µg/mL | neutralization IC50 [61]: < 0.0006 µg/mL | neutralization IC50 [62]: 0.005 µg/mL | neutralization IC50 [63]: 41.5 µg/mL | neutralization IC50 [64]: 0.003 µg/mL | neutralization IC50 [65]: < 0.023 µg/mL
